Reference: patent US20170065713A1

Target: soluble HLA-A*02:01 molecules (purified MHC with human β2-microglobulin) (human)
Experiment: competition with radiolabeled standard peptide for soluble HLA-A*02:01

Binder | Kd [nM]
NLLTTPKFT (modifications not checked) [gB342-350 peptide (HSV-1 glycoprotein B residues 342-350, …)] | > 500
GIFEDRAPV (modifications not checked) [gB183-191 peptide (HSV-1 glycoprotein B residues 183-191, …)] | > 500
